Legend:
human glucagon receptor = human glucagon receptor (Homo sapiens, UniProt P47871); assay: cAMP-response element luciferase reporter in CHO-K1 cells expressing human GCGR-GFP; format: cell-based; conditions: 1 ug/ml aP2, 25 nM glucagon, 20 μg/ml antibody; 4 hours post stimulation
Protocol: Bar graphs represent mean±standard deviation (s.d.), n=4-5 per group. *P<0.05, **P<0.01, ***P≤0.001, ****P≤0.0001, ns P>0.05. Multiple group comparisons were done using one-way ANOVA statistics with Tukey post-test correction. Graphs show data as mean±standard error of mean (s.e.m.), analyzed using two-way ANOVA.
During cloning hexahistadine and WELQ protease site was added for protein purification. Murine aP2 gene was cloned into pet21+ vector after the hexahistadine tag and TEV protease site for ease of purification.
Plasmids were transfected using Lipofectamine (Invitrogen) according to manufacturer's instructions. Transiently transfected cells were grown in appropriate selection antibiotics where applicable for stable cell line generation. Following three passages under selection media, single cell colonies were picked and expanded for experimentation after validation.

Mouse aP2 = molecular target: T1, Mouse aP2 (Mus musculus, UniProt P04117); assay: Biacore antibody cross-blocking vs H3; format: binding
T1 construct: 10 His-tag (N, cleaved yes); TEV protease site (N, cleaved yes); made in house; host or cells: E. coli BL21DE3
T1 sequence (P04117 1-132): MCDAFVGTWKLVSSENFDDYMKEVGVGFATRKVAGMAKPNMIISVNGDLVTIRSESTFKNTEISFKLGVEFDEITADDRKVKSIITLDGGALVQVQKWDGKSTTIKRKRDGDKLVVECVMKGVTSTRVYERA
Protocol: FIG. 10B is a table of antibody crossblocking of H3 vs. CA33, CA13, CA15, and CA23 as determined by Biacore analysis. ++=complete blocking; +=partial blocking; −=no crossblocking.
The assay was performed by injecting mouse aP2 in the presence or absence of mouse anti-aP2 IgG over captured rabbit anti-aP2 IgG. Biomolecular interaction analysis was performed using a Biacore T200 (GE Healthcare Bio-Sciences AB). Anti-aP2 rabbit IgG transient supernatants were captured on the immobilized anti-rabbit Fc surfaces (one supernatant per flowcell) using a flow rate of 10 μl/min and a 60 s injection to give response levels above 200RU. Then mouse aP2 at 100 nM, 0 nM or mouse aP2 at 100 nM plus mouse anti-aP2 IgG at 500 nM were passed over for 120 s followed by 120 s dissociation. The surfaces were regenerated with 2×60 s 40 mM HCl and 1×30 s 5 mM NaOH.
In further analysis, epitope identification based on hydrogen-deuterium exchange mass spectrometry experiments, for example, as described by Pandit et al. (2012) J. Mol. Recognit. […] Co-crystallization of the Fab fragments of CA33 and H3 with aP2 (FIG. 10D) was then conducted. […] Despite the partial blocking of H3 by CA33, we observed that there is in fact no direct overlap of their epitopes. Instead, the significant movement of the region around aP2 Phe58 may partially block binding of one antibody by the other in the competition experiments. […]

ob/ob mice = assay: CA33 treatment of leptin-deficient ob/ob mice; format: in vivo, mouse
Protocol: FIG. 11C is a bar graph showing fasting blood glucose levels (mg/dl) in ob/ob mice before (open bars) and after (solid bars) 3 weeks of CA33 antibody or vehicle treatment (n=10 mice per group). **p<0.01.
The test was performed after 2 weeks of vehicle (triangles) or CA33 antibody treatment (squares) in aP2−/− mice. *p<0.05.
(§1) The test was performed after 3 weeks of vehicle (triangles) or CA33 antibody treatment (squares) in aP2−/− mice.
as §1
Animal care and experimental procedures were performed with approval from animal care committees of Harvard University. Male mice (leptin-deficient (ob/ob) and diet induced obese (DIO) mice with C57BL/6J background) were purchased from The Jackson Laboratory (Bar Harbor, ME) and kept on a 12-hour light/dark cycle. DIO mice with C57BL/6J background were maintained on high-fat diet (60% kcal fat, Research Diets, Inc., D12492i) for 12 to 15 weeks before starting treatment except in clamp studies, for which they were on HFD for 20 weeks. Leptin-deficient (ob/ob) mice were maintained on regular chow diet (RD, PicoLab 5058 Lab Diet). Animals used were 18 to 31 weeks of age for dietary models and 9 to 12 weeks of age for the ob/ob model. In all experiments, at least 7 mice in each group were used, unless otherwise stated in the text. The mice were treated with 150 μl PBS (vehicle) or 1.5 mg/mouse (˜33 mg/kg) anti-aP2 monoclonal antibody in 150 μl PBS by twice weekly subcutaneous injections for 3 to 5 weeks. Before and after the treatment, blood samples were collected from the tail after 6 hours of daytime food withdrawal. Body weights were measured weekly in the fed state. Blood glucose levels were measured weekly after 6 hours of food withdrawal or after 16 hours overnight fast. After 2 weeks of treatment, glucose tolerance tests were performed by intraperitoneal glucose injections (0.75 g/kg for DIO, 0.5 g/kg for ob/ob mice). After 3 weeks of treatment, insulin tolerance tests were performed in DIO mice by intraperitoneal insulin injections (0.75 IU/kg). After 5 weeks of treatment, hyperinsulinemic-euglycemic clamp experiments were performed in DIO mice as previously described (Furuhashi et al., (2007) Nature 447, 959-965; Maeda et al., (2005) Cell metabolism 1, 107-119).
Finally, the effect of CA33 in a second model of severe genetic obesity and insulin resistance using leptin-deficient ob/ob mice was examined. Strikingly, hyperglycemia in the ob/ob mice was normalized in CA33-treated mice compared to controls (FIG. 11C).

Chain of human glucagon receptor (P47871 26-477): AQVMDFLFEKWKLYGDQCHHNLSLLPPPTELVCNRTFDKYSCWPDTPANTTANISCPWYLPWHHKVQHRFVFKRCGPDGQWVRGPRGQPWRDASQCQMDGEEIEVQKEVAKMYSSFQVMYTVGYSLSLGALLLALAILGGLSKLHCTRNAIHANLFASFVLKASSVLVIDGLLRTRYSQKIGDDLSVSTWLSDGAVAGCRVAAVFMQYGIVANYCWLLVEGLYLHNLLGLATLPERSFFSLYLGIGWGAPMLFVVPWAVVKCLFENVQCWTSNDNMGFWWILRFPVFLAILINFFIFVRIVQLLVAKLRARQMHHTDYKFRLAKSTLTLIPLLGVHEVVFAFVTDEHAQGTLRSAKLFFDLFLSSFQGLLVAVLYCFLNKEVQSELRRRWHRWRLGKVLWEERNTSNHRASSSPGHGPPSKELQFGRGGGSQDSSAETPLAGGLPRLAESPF

Blocking of H3 binding to aP2 (Mouse aP2): partially blocked
B1: CA33: low-affinity anti-aP2 monoclonal antibody, rabbit-mouse hybrid, produced and purified by UCB; VL Seq. ID 28, VH Seq. ID 41 (antibody, V domains shown)
VH: QSVEESGGRLVTPGTPLTLTCTVSGFSLSTYYMSWVRQAPGKGLEWIGIIYPSGSTYCASWAKGRFTISKASTTVDLKITSPTTEDTATYFCARPDNDGTSGYLSGFGLWGQGTLVTVSS
VL: DVVMTQTPASVSEPVGGTVTIKCQASEDISRYLVWYQQKPGQPPKRLIYKASTLASGVPSRFKGSGSGTDFTLTISDLECDDAATYYCQCTYGTYAGSFFYSFGGGTEVVVE
modifications: Rabbit Ab 909 VH region; Rabbit Ab 909 VL-region
Effect on glucagon potentiation by aP2 (cAMP response, luminescence) (human glucagon receptor): blocks the glucagon potentiation effect of aP2
Insulin levels (ob/ob mice; ob/ob mice): lower insulin levels
Glucagon response (ob/ob mice; ob/ob mice after 3 weeks of treatment): blunts the glucagon response
Hyperglycemia (fasting blood glucose) (ob/ob mice; ob/ob mice, 3 weeks of treatment, vs controls): normalized
Glucose tolerance (GTT) (ob/ob mice; ob/ob mice, after 2 weeks, vs vehicle): significantly improved glucose tolerance

Source: patent publication US20250346646A1, “COMPOUNDS USEFUL TO TREAT METABOLIC DISORDERS” (President and Fellows of Harvard College, priority 2016, published 2025)
